Test results reported in patent publication US20230257458A1 (SUNSHINE LAKE PHARMA, published 2023).

Legend:
[1] = biological target: T1, recombinant CLC (R&D systems, 962-CL-050) (UniProt Q9UBD9 28-225); assay: ELISA, cytokine coated
T1 sequence (looked up): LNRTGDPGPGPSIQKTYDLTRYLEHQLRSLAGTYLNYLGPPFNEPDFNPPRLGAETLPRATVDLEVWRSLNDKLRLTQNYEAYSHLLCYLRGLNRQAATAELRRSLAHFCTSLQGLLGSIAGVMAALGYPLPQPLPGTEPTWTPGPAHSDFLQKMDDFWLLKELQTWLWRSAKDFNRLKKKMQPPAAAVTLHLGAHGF

[2] = biological target: recombinant IL-6 (Sinobiological-10395-HNAE) (UniProt P05231 30-212); assay: ELISA, cytokine coated
[3] = biological target: T2, recombinant CT-1 (R&D systems, 612-CD-010) (UniProt Q16619 2-201, limits assumed); assay: ELISA, cytokine coated
T2 sequence (looked up): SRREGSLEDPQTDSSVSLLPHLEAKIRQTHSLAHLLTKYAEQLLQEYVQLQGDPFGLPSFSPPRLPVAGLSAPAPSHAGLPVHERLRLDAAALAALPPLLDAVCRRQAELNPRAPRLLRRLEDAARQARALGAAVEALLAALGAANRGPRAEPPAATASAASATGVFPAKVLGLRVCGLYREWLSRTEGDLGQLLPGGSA

[4] = biological target: recombinant LIF (Peprotech, 300-05) (UniProt P15018 23-202); assay: ELISA, cytokine coated
Chain of recombinant LIF (Peprotech, 300-05) (P15018 23-202 limits assumed): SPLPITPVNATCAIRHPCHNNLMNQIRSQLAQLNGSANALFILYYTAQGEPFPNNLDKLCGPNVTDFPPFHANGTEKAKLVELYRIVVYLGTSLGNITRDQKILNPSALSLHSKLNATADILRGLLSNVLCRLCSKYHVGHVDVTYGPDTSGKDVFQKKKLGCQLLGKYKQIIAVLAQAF

[5] = biological target: T3, recombinant IL-31 (Peprotech, 200-31) (UniProt Q6EBC2 24-164); assay: ELISA, cytokine coated
T3 sequence (looked up): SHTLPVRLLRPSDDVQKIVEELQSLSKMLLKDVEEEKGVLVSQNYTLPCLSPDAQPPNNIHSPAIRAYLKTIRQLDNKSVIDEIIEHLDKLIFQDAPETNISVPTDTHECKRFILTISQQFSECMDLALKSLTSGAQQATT

[6] = biological target: T4, recombinant IL-27 (R&D systems, 2526-IL-010) (UniProt Q8NEV9 29-243; Q14213 21-229); assay: ELISA, cytokine coated
T4 sequence (looked up) 1: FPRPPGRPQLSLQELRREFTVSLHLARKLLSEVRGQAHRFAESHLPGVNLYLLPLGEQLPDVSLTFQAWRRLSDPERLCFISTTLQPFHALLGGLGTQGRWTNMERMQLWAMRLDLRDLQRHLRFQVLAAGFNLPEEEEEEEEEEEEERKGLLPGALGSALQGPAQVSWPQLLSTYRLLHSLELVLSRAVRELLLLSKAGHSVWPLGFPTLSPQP
T4 sequence (looked up) 2: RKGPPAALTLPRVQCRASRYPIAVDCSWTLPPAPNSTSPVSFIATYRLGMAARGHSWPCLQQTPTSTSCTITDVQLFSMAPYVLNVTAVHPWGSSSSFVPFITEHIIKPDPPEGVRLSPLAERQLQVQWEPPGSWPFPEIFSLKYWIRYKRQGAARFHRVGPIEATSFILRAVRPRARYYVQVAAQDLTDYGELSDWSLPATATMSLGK

[7] = biological target: T5, recombinant OSM (Genscript-z03132) (UniProt P13725 26-234, limits assumed); assay: ELISA, cytokine coated
T5 sequence (looked up): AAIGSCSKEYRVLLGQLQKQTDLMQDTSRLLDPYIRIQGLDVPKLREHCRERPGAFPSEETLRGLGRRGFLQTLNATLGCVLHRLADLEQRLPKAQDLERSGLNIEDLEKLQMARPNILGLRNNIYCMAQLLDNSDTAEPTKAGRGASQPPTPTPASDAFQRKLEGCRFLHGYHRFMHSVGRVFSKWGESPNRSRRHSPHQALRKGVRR

[8] = biological target: T6, recombinant CNTF (R&D systems, 257-NT-010) (UniProt P26441 2-200); assay: ELISA, cytokine coated
T6 sequence (looked up): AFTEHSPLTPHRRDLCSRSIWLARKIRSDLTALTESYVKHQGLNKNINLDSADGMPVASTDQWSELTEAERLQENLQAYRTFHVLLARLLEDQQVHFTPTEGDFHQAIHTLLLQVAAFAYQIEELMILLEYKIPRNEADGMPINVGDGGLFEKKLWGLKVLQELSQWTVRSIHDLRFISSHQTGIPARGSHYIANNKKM

IL-11-Fc protein [9] = biological target: T7, IL-11-Fc protein (UniProt P20809 22-199, limits assumed); assay: flow competition: IL-11-Fc + antibody gradient on membrane-IL-11R CHO cells; 5-20E11-5F2 antibody
T7 construct: also called IL-11 recombinant protein with Fc tag; not shown: Fc tag
T7 sequence (looked up): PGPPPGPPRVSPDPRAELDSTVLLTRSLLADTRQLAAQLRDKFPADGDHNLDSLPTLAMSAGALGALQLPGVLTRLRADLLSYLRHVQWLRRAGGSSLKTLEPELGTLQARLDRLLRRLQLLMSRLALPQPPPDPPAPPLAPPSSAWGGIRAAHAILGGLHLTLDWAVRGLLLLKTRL
Text: The secondary antibody used in the detection was a secondary antibody conjugated with a FITC fluorophore (Goat-anti-Fc-FITC) (Abcam, ab98529).

IL-11 protein [10] = biological target: T8, IL-11 protein (UniProt P20809 22-199, limits assumed); assay: SPR (Biacore), antibody captured, 400 nM IL-11 as analyte
T8 construct: also called IL-11 antigen
T8 sequence (looked up): T7 sequence (looked up)
Method: The measure method included the steps of capturing the humanized antibody at a flow rate of 10 ul/min. […] Finally the chip was regenerated with 10 mM glycine buffer.

IL-11 protein [11] = biological target: T8, IL-11 protein; assay: flow competition: IL-11 + antibody on IL-11R cells; lower = more blocking
Text: Cell lines with high secretion of specific antibody were selected for expanded culture and cryopreservation.

IL-11-Fc protein [12] = biological target: T7, IL-11-Fc protein; assay: flow competition: IL-11-Fc + antibody dilutions on membrane-IL-11R CHO cells
Method: Then the plate was incubated with 1.5*10\hat{ }5 membrane-IL-11R CHO cells (100 ul/well) for 1 h at room temperature. After incubation, the plate was centrifuged at 1500 rpm for 5 min, washed three times with PBS, and 1:400 diluted flow secondary antibody Goat-anti-Fc-FITC (Abcam, ab98529) was added with 200 ul/well. Then, the plate was incubated at 4° C. for 1 h, centrifuged at 1500 rpm for 5 min, washed three times with PBS, resuspended cells in 180 ul PBS, and detected by flow cytometry.

- binding result [1]: no binding
- binding result [2]: no binding
- binding result [3]: no binding
- binding result [4]: no binding
- binding result [5]: no binding
- binding result [6]: no binding
- binding result [7]: no binding
- binding result [8]: no binding
- IC50 (IL-11-Fc protein [9]): ~21 µg/mL
- Kd (IL-11 protein [10]): 2.09 nM
- koff (IL-11 protein [10]): 0.000122 s⁻¹
- kon (IL-11 protein [10]): 58400 M⁻¹ s⁻¹
- FITC Mean (IL-11 protein [11]): 3110
- EC50 (IL-11-Fc protein [12]): 7.54 µg/mL
B1: 5-20E11-5F2 (antibody, human IgG1, kappa, V domains shown)
VH: QVQLQQSGAELVRPGTSAKISCKASDYTFTNYWLGWLKQRPGHGLEWIGHIYPGGGYTNYNEKFKGKATLTADTSSSTAYMQLSSLTSEDSAVYFCARVRSGNDALDFWGQGTSVTVSS
VL: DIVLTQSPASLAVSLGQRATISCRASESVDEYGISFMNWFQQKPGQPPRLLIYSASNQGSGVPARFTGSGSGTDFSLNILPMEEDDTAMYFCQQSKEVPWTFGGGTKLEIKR
notes: also called 5-20E11-5F2 antibody; 5-20E11-5F2 mAb
